Experimental findings from the DeepSol protein solubility set are described below.

A short description of this series: soluble on expression in E. coli; label from the status in PepcDB or PDB records.
On to “MSGNRGGSYISGIVPSFKERRPFHERQKDVEEIRSQQPNKVPVIIERFDGERSLPLMDRCKFLVPEHITVAELMSIVRRRLQLHPQQAFFLLVNERSMVSNSMSMSNLYSQERDPDGFVYMVYTSQPAFG”, for which the “soluble on expression in E. coli” value is listed as “not soluble”. The same measure for “MGSDKIHHHHHHSDSLQSAYDTDATYRDKAGKKESGYTATFTETCNSENDVQIIVDYTVEPNNKSDVEIFQDRMDIIKDNTNASDIYADGGYYGENVINKANSKGIEIQLHYTDMTGKTAPEGQLPAHHFVFNKDMEMVQCPGGQIPSSSKYNSKTKITTSHFPKEVCNNCPHRCNCPLKEQKRDMVVRISKKSILASQVRETVNDPHIKHENISKRAAIEGTNSAIKGCQGAKRLRVRGKIKCTLQIGFKVIGHNFKQIFRALTKQIKKPKIKTKGLLCPNPN”: “not soluble”; for “MGKNLQALAQLYKNALLNDVLPFWENHSLDSEGGYFTCLDRQGKVYDTDKFIWLQNRQVWTFSMLCNQLEKRENWLKIARNGAKFLAQHGRDDEGNWYFALTRGGEPLVQPYNIFSDCFAAMAFSQYALASGEEWAKDVAMQAYNNVLRRKDNPKGKYTKTYPGTRPMKALAVPMILANLTLEMEWLLPQETLENVLAATVQEVMGDFLDQEQGLMYENVAPDGSHIDCFEGRLINPGHGIEAMWFIMDIARRKNDSKTINQAVDVVLNILNFAWDNEYGGLYYFMDAAGHPPQQLEWDQKLWWVHLESLVALAMGYRLTGRDACWAWYQKMHDYSWQHFADPEYGEWFGYLNRRGEVLLNLKGGKWKGCFHVPRAMYLCWQQFEALS”: “soluble”; for “MESPNMNQPKINSTAGCALPPPNEMILKWAAERPNEVYLKQIINRQFVEFTYAEVADQALKLVSALRGLGIQPGDKVALVSKNCAE”: “not soluble”.

Take “MIGDFWKESNGLATANDMDKNLAYMYTMKKKARGQLLFTKEKLAEYGSKVGLFPGVKDWFRRIRQYGADREVIIEHYIISSGLKEMIEGTSIAKDFKEIYATSFYFDDDGVAVWPAQVVNYTNKTQFLFRISKGVLNVNDEAVNDSFAPDEIRVPFHNMIYIGDSDTDIPCMKLVNSHGGYSIGVFNPKERNEEKAKKRVYKMIRDNRIGYF”: the “soluble on expression in E. coli” value is reported as “not soluble”. The same measure for “MAHHHHHHMVNFILNEAKDKAHEIEAKALEDFNIEKLRIVQKMKEKIRVEFQKKAKQMEIKRSIARSSAINKARLKKMCAKDQVFKEIYKISSDKLNDLYKDKDKYKNLIVDLIVQSLFYMQEPHVIVRCRDIDKAVVESSLNEAVSKYTDKLKKQFNVTKTVKIELDKSGNYLPPPPTPENEGNSCLGGVILTTPNRKINCDNTLDVRLKLAIEYCTPEIKRMFFENA”: “not soluble”; for “MNISIRAETPGDIDAIAHLTEAAFRNETHSSHTEQYIVDALRRAGALTLSLVAEANGQVIGHIAASPVTIDGEAGDWYGLAPLSVAPGRQRQGLGSQLVRRLLTELRLLPAGGCVVLGEPTYYSRFGFRVESGLALPGVPAEYFQAQSFSGRMAQGIVAFHAAFDASG”: “not soluble”; for “MGSDKIHHHHHHVFDKNLRNSFFAEPYSSEPLAIRIREVLNGKVGFYSVGLYPASLAYNCALQNEGFNILLAPRDGRELFGAFSDIDLSEMDNGIKNKIESMAIPNEDKSGRYNTLKDLLINCELVVLSSNSKHIITDLDLAFKLRKELNRDNVLIACLVGSFCHDHNLNESFVLCEKLNKLAFFSGFHRHGALRNPLDSFTANFCHPDSMNAILGAKLLNKISPNIQVSAGIHNVEGQYIKAAKNISSIFAGFGHTFHKNNPGLLPTLLTLLLDQCLDQAAYVSMSRTDREDLYSKQPFPITELGYSVQRIEASYVKDGDFVQVRDHTFTQLKAMVADVRGSMMLPVSGNPTRNFQAGQVLAERMIEYKRCPKGVDEFIEWCERSGLKRGALEGINSLNYWPNILRKYSIPLNNSSMINLLYMCILGPVEIKNCIYNVMSSSRELANYCQESVKSSQNKKISEALDNFHLKTSVDFVTKSLIDDDKLFFENNEIGFDNPLGAQNMPIYNKVIDYMETYLLESNL”: “not soluble”. Take “MMRCPECSTEGWRVLPLTVGAHVKEGLWSKIKGDFYFCSLESCEVVYFNEQTVFRKGELKTRVGVKEREEPKPVCYCNRVTEKMLLEAAEKFGKEKAVEITGAGKGKWCVVTNPSGRCCHWHLERLGFPVGGEKKAAKRVEIKLDGLTCMGCVSAVKAALEEAGANVVEIGLDRAVVEVDEEAELQKLVEAVEGAGYSARLEKR”: the “soluble on expression in E. coli” value is given as “not soluble”. The same measure for “MSSSPTSSSSGSPSSHGHRSETEKQRRDDTNDLLNEFKKIVQKSESEKLSKEEVLFRIVKLLSGIQLHHESFSTSPGPIRSIKKIKSDREQVRRNKRVAAYRELRKFIALNNLSSSEEIDKMENLKVLEIIFEVIRGKSITCTVPCLPFPILPFLPVFPVYSPLVFNSYNQFSLYPPHMPTVQIPIVPSSSFEIDALEIEENEKDIDIVG”: “soluble”; for “MSLTQNIRPLPQFKYHPKPLETGAFEQDKTVECDCCEQQTSVYYSGPFYCVDEVEHLCPWCIADGSAAEKFAGSFQDDASIEGVEFEYDEEDEFAGIKNTYPDEMLKELVERTPGYHGWQQEFWLAHCGDFCVFIGYVGWNDIKDRLDEFANLEEDCENFGIRNSDLAKCLQKGGHCQGYLFRCLHCGKLRLWGDFSEGGSHHHHHH”: “soluble”.

On to “MVVSAMAGLEENGSEPTAPRADPQGDPFLRTRFALPTRPGTFLRRERLVRHLDHALRTPLTMVNGAAGAGKTLLVADWAAGQDRSVAWLTTDAADQGCGTFWAYLLQALRACDVPLPAEVGFPADANRVDHTLLARLAADLSVRDRPVVVVLDEYDRVTDPEIADQLEFV”, for which the “soluble on expression in E. coli” value is “not soluble”. The same measure for “MYFMKSKNRFLLISLLSFSTSVFADVNLYGPGGPHVPLIKVAESFEKSQSKRVNITFGPQATWNDKAKKNADILFGASEHSALAIAEGHSERFSKFNIHPVFMREAIILVKKGNPKNIKGMADLLKPGIGIVVNDGAGVSNTSGTAVWEDSVGRMKNVEKLQAFRSNIHVFAPNSGSARKAFVDGEDIDAWITWVDWAIANPTIGDMVRMEDEYRIYRDFNVVLAKNPSSEAIDFFDYLTKSKDAEAIFQHYGWFK”: “not soluble”. Regarding “MPGNHSEISLNEQNRVDDNDTKTKTTTRKKKKKKDVTIVDDDDNQFDTTNQLVKSKNRFLGKFRKKPKSPKRWSGSRKGGCFRVMRPRRREGGDDDSSVSSPVSDPNDERFSHEMLRVMLETNDFCSDECNPHR”, the “soluble on expression in E. coli” value was “soluble”. The same measure for “MGSDKIHHHHHHMDINTKNLKKNAFRVTKRRGITASRIRVPGGHLEAKFLSMIQNIAENYGDGSVHITSRQGFEIPGIKFEDMPKVNELLQPIIEGLNINQETALQGYSASGTRNITACVGNRVCPYGCYDTTSFAQRIEKAVFPHDLHFKIALTGCPNDCAKVRMHDFGIMGMTEPHYESDTCVSCGACVKVCKKKSVGALSAVNYKVVRRGEKCIGCGECVLKCPTGAWTRSEKTYYRLTLLGRTGKKNPRLGEDFIKWVDEDSIIKIILNTYDYVTKYIDPNAPGGKEHIGYIVDRTGFEEFKKWALKDVKLPSIAEVYTPIYWNGIKY”: “not soluble”; for “MSKIADDQNFNDEEENFAKLFKKELEKEETLEKGTIKEGLVVSINENDGYAMVSVGGKTEGRLALNEITDEKGQLLYQKNDPIIVHVSEKGEHPSVSYKKAISQQKIQAKIEELGENYENAIIEGKIVGKNKGGYIVESQGVEYFLSRSHSSLKNDANHIGKRVKACIIRVDKENHSINISRKRFFEVNDKRQLEVSKELLEATEPVLGVVRQITPFGIFVEAKGIEGLVHYSEISHKGPVNPEKYYKEGDEVYVKAIAYDAEKRRLSLSIKATIEDPWEEIQDKLKPGYAIKVVVSNIEHYGVFVDIGNDIEGFLHVSEISWDKNVSHPNNYLSVGQEIDVKIIDIDPKNRRLRVSLKQLTNRPFDVFESKHQVGDVLEGKVATLTDFGAFLNLGGVDGLLHNHDAFWDKDKKCKDHYKIGDVIKVKILKINKKDKKISLSAKHLVTSPTEEFAQKHKTDSVIQGKVVSIKDFGVFINADGIDVLIKNEDLNPLKKDEIKIGQEITCVVVAIEKSNNKVRASVHRLERKKEKEELQAFNTSDDKMTLGDILKEKLLEHHHHHH”: “soluble”; for “MSVDSLPTLFQWARDNLLKEEALAISALEELPIHLFPEMFKVAFTDRHTKVLIAMVSAWPFPCLPVGTLIEDPHLETLKAVLDGLNVLVTGKVHSSRCKLRVLDLRRNVHHDFWSIQTGSHEDNCPAQIVAQKQPVETCPNPRREIPFMVVTDFELTQESFDEWTIYLMQWIQERKSSIHLCCRKLNSCASPVSNVIEIFKLVDLNCILELQLSQWWPEVLEELDPYLEGMNNLHTLMLEGLKPFRFTACEEDQEDEWQSTLPSLLSNFGSLQNLYLNDIYLLEDSLDKWLGCLKTPLKTLSITDCPRLLQSDFECLPNCPNICKLKHLNLNALFLSDVGYEIPGLILEKVTSTLQILELERCGMTDPHFKALMPALSKCSQLLKVSFCHNDISLRVLKTLLCHTAKLSQLTQELYPAPQECYEDYKILKDRFKKLCPELLNILKAKRQPKKVSFTTQTCLKCLHSCHYYYNLEATDCLCQCICQ”: “not soluble”. Regarding “MAGQLTFKRELEKVFEKELKKRIERIGKTPLSPLSLILFTRIAELSAIENGYIRPTEYEMREIFAARTTYSEGLLSTLKDIIYSHFLRSNLGEHLEDFIYTLQRIEDIQSKIDELILREMREVSLRKVYHELLRFLLDMLCDKDMVRFD”, the “soluble on expression in E. coli” value is given as “not soluble”. The same measure for “MKIQLDINGTEIQKGVWVGSGAIIEPGAILNPPCVIGDNCRIESGAVIDSLSVIGNNNVIERDSSVKRSVIWDGNYIEYGSKIRGAILCSKTNLKRYVHIFENAIVGDNCLINERVVIKPNIKIWPQKTVEPFAIVDRNIIWGSKLEHHHHHH”: “not soluble”. The same measure for “MAHHHHHHMTSTVTAVNQTQSLAAIRNFVRASVSCITYARGLCSDNAYEQRPFLGLPLRQLIPSTTESITISEWIEKGAFDALNRNYLKEMSLCVYDAACHELLESYCFGFNYTGDGERAQMTLNASQTIADGSKTTAVSQSSGGAVGIPAYRKRRCTKQEVQHLLTSILERLMDVVESLPPLLSERVLTMRLTYYDAVTPASYEPPCFAPASEHMARLYQAEVKHHVNIGSMDTSHHLFSVAIRHPLLQQIHRQMTGRTTSAVATKTGGSPLSAGKIAAVSTPSDPLRSGWESSFSSDPAVASAVAAAGATVTHGVVASHASCGLLLCADGEGAAFDAENAGEEKAAGSSLGEVGGGGACTARTGETLRPCEVAKLDGVYRLMEKSTSGDERRLLRPAELTYLLFAAFVFTKAPSARGGRGELKADEVEAYRALRCPFDVSAKTVLLVLQRLSREDFLQPCNARGAPAPKMPKAEEGSRPTPAIRAWLVPDPPASLLQQLMQVDAVTELLTHESHLVLQELSVYLAREEWRRAPRTMTAKATSGRISTTGGSGKRRSSR”: “soluble”.

On to “MILSMTGFGKHTIQFADKKITATIKSLNSKQFDLSTKISSRYRDRELPLRALVSADIGRGKVDFSLFLEESGSTDVVSQIFDTEKMSSYFFQLKEFGEKMGVEVPAGGWFEQLLRIPGVIQIDEDKEEEIPEDEWAVVIETCRRALDQLIGFREQEGAMLEQVFTEKISNISSLLLQIEQYEPDRIQRIKERIEENLTKISEKDYDKNRFEQEMIYYIEKLDVNEEKHRLRNHLSYFLQTMQGEPGQGKKLSFIAQEIGREINTLGSKSNHVEMQQIVVQMKDELEQIKEQVLNVL”, for which the “soluble on expression in E. coli” value is given as “not soluble”.
